This is an account of results in paper PMC10196373, “Conformational analysis and interaction of the Staphylococcus aureus transmembrane peptidase AgrB with its AgrD propeptide substrate” (Frontiers in Chemistry, 2023).

Data set [1] addresses T1, AgrB1 with C-terminal SmBiT (agrBCS) (Staphylococcus aureus, UniProt P0C1P7 1-189).
T1 construct: AgrB1, transmembrane peptidase of S. aureus agr group 1; agrB1 gene amplified with its upstream P2 promoter; A 16 amino acid flexible linker joins AgrB and SmBiT; also called AgrB-SmBiT; pSK-P2-agrBCS; source: S. aureus SH1000, from the agr P2 promoter, chromosomal (attB2) or on low copy plasmid pSK5630, in live cells; not shown: SmBiT (NanoBiT), C-terminal, kept
T1 sequence: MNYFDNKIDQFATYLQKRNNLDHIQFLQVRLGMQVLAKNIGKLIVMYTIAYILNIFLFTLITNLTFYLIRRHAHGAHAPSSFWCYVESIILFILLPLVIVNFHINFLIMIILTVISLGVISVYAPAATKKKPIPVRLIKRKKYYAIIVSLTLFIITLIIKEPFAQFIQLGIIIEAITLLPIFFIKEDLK
Kind of data set: split reporter (BiFC, NanoBiT); live S. aureus SH1000 cells; one tagged fusion on the chromosome (attB2), the other on a low copy plasmid, both from the agr P2 promoter; cells at OD600 1.0, Nano-Glo live cell reagent (furimazine), bioluminescence (RLU). The following applies: partners not purified.

Data set [2] deals with the molecule itself. Kind of data set: new band of the complex on Tris-glycine gel, Western blot; purified AgrB with DOPG (1 mg/mL) incubated with T7-AgrD1 (2 uM) 30 min at 37 C in 20 mM Tris-HCl pH 7.5, 5 mM MgSO4; heated to 55 C for 5 min in SDS sample buffer, 14% Tris-glycine gel without SDS; blots probed with an AgrB nanobody or an anti-T7 antibody. (In western blotting, separated proteins are transferred to a membrane and probed.)

B1: AgrD1 with C-terminal LgBiT (agrDCL) (peptide)
chain: MNTLFNLFFDFITGILKNIGNIAAYSTCDFIMDEVEVPKELTQLHE
notes: AgrD1 pro-peptide of S. aureus agr group 1; PCR-amplified agrD1 put in place of agrB1 in the split luciferase plasmid; A 16 amino acid flexible linker joins AgrD and LgBiT; also called pAgrDCL; AgrD-LgBit; source: S. aureus SH1000, from the agr P2 promoter on low copy plasmid pSK5630, in live cells; not shown: LgBiT (NanoBiT), C-terminal, kept
With B1, the “luminescent signal relative to the other constructs” value in data set [1] is greater than 10 times.

B2: T7-AgrD1, AIP pro-peptide AgrD1 with a 14 residue T7 epitope leader tag (peptide)
peptide: MNTLFNLFFDFITGILKNIGNIAAYSTCDFIMDEVEVPKELTQLHE
notes: AgrD1 pro-peptide of S. aureus agr group 1; also called AgrD-T7; T7-tagged AgrD; source: synthetic peptide (solid phase synthesis), bought: CS Bio
With B2, in data set [2], the binding result is on record as “binds”.
